PMC8591454 (Frontiers in Microbiology, 2021)

Target: T1, truncated capsid protein sar239 from genotype 1 HEV Sar55 strain (hepatitis E virus genotype 1, strain …, UniProt P33426 368-606)
T1 sequence: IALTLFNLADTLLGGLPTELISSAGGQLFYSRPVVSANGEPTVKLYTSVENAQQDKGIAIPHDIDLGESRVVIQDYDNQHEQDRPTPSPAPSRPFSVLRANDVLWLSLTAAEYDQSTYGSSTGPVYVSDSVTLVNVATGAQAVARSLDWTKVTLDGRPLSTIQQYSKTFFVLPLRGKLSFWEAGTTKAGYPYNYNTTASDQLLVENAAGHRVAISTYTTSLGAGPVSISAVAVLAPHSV
Assay: ELISA
Conditions: both partners purified

B1: His-tagged cell division control protein 42 (CDC42-His) (natural protein)
chain: not shown
notes: also called recombinant CDC42-His protein
  binding result: binds
